Measured values from the supplement of paper PMC9170038.

Test system: MS2 coat protein
Assay: apparent KD of MS2 coat protein; designed switch direction (-1 OFF switch, 1 ON switch): -1; higher = weaker reporter binding
Outline: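 An oligonucleotide input, 200 uM small-molecule ligand, or no input was present during titration of SNAP-549-labelled MS2 coat protein, which was doubled from 0.7 or 1.5 nM to 3 µM. Designed RNA switches had been transcribed on Illumina chips by stalled E. coli RNA polymerase. Apparent KD per design is the median over clusters of curves fitted to normalised cluster fluorescence.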

[1] = input ligand: microRNA oligo, concentration not stated
[2] = Eterna round: R95, input ligand: FMN 200 uM
[3] = Eterna round: R95, input ligand: microRNA oligo, concentration not stated
[4] = Eterna round: R95, input ligand: none

| Sequence | apparent KD of MS2 coat protein (input ligand: FMN 200 uM) | apparent KD of MS2 coat protein (input ligand: none) | apparent KD of MS2 coat protein [1] | apparent KD of MS2 coat protein [2] | apparent KD of MS2 coat protein [3] | apparent KD of MS2 coat protein [4] |
| --- | --- | --- | --- | --- | --- | --- |
| AAUUAGUGAGGAUAUACUAACAGUGAUAGUAGAUAGUGGAUGUAGAAGGCACAUGAGGAUCACCCAUGUUAUAA [EX4 #51] (Eterna round: R97, puzzle: Exclusion 4) | 39.1 nM | 33.5 nM |  |  |  |  |
| AAAUUAGCAAGUAGGUCCGACAUGAGGAUCACCCAUGUAAUCUAAUAUUACGCUGCAUGAGAGUGCGCUCGUCUUAG [Sensor-V1 #17] (Eterna round: R97, puzzle: Sensor, turn-off variant 1) | 241 nM | 337 nM |  |  |  |  |
| CCCUUGUGAGGAUAUUUUUAAAAUGCUAACCACAAUUUUAUGAAGAAGGUACAUGAGGAUCACCCAUGUUUCUC [Tried to obey the law of the pack] (Eterna round: R97, puzzle: Exclusion 4) | 20 nM | 21 nM |  |  |  |  |
| GUCGGGCGUGUCAGGAUAUGGUAGAGUGGUCGCGGCCAGAAGGGACAUGAGGAUCACCCAUGUUCCGUGGGCAG [BmEX4 C.11] (Eterna round: R97, puzzle: Brourd's mod of Exclusion 4) | 19 nM | 19.9 nM |  |  |  |  |
| CUAGUAUAUCAGGAUAUGAUUUUGUGUAGUUAAUCAGAAGGGAUGACAUGAGGAUCACCCAUGUUAAGGGAUGA [JR_Ex6_Sub046] (Eterna round: R97, puzzle: Exclusion 6) | 324 nM | 83.3 nM |  |  |  |  |
| UCACGGGACUAAGGAUAUACAUGAUCCAUUUUUGUAGAAGGUAGAAUGUUAGAUCAUAAACUAAACAUGAGGAUCACCCAUGUU [JR_ExcNG1_Sub089] (Eterna round: R96, puzzle: Exclusion NG 1) |  |  | 20.2 nM |  |  |  |
| AGCAAGUCAGGAUAUCAAAGCAGCUAUAUGCUGCCCGGGCUUGAGAAGGGACUUGAGGAUCACCCAAGUGAUAG [Titiar] (Eterna round: R97, puzzle: Exclusion 4) | 101 nM | 25.1 nM |  |  |  |  |
| AAGUAGGAUGUUAGGAUAUCGCCCUCGCAAUAGGGCGAGAAGGGACAUGAGGAUCACCCAUGUAGGCGAUAGAA [Laedesed] (Eterna round: R97, puzzle: Brourd's mod of Exclusion 4) | 29.3 nM | 16.9 nM |  |  |  |  |
| CAUGAUCUUCGGAUCAUGUACAUGAGGAUCACCCAUGUGACGAGUUACAUGAAAAACAAGCUUUUUGCUCGUCUUAU [Sensor v3 - Turn-off variant 1 - 9] (puzzle: Sensor v3, turn-off variant 1) |  |  |  | 42.1 nM | 121 nM | 49.8 nM |
| ACAAGCUUUAGGCGUGUGAACAUGAGGAUCACCCAUGUAAAGUAGGUUAGGAGGUCUGUAAGGGAUGCUCGUCUUAU [JR_SWV3TOV1_Sub090] (puzzle: Sensor v3, turn-off variant 1) |  |  |  | 89.4 nM | 45.5 nM | 113 nM |
| CUUGUACAUGAGGAUCACCCAUGUUAGGAUAUCUCGCCGUCGGCUUGCCGACGGUAUUAGAGAAGGGACUAGGG [JL Tixe mod 5] (puzzle: Exclusion 1) |  |  |  |  | 38.8 nM |  |
| CAUGAUUUUCGGAAAAUGUACAUGAGGAUCACCCAUGUGACGAGUUACAUGAAAAACAAGCUUUUUGCUCGUCUUAU [Sensor v3 - Turn-off variant 1 - 11] (puzzle: Sensor v3, turn-off variant 1) |  |  |  | 102 nM | 24.8 nM | 188 nM |
| GGAUCGAAUGUGAGGAUAUGCAGGUCCUUGGAUCUGCAGAAGGCACAUGAGGAUCACCCAUGUGACCUAGAUCC [Mat - Exclusion 4 - Eli Mod - D44] (Eterna round: R97, puzzle: Brourd's mod of Exclusion 4) | 268 nM | 30.5 nM |  |  |  |  |
| UGUUAGAUGGUAGGAUAUCCAUAUCGAGUGACCCUUUCAUAACAUGAGGAUCACCCAUGUCGGUGGGAGAAGGGCCGUAUGGUG [salish99_ExNG02_R04_031] (Eterna round: R96, puzzle: Exclusion NG 2) | 18 nM | 22.7 nM | 15.8 nM |  |  |  |
| GCAGCAAACCCAAUUAAAACCACAUGAGGAUCACCCAUGUCUCAGGAUAUGGUCUGGAUUACAGGCCAGAAGGGAGAAAGCUGC [Eli exng3 - 052] (Eterna round: R96, puzzle: Exclusion NG 3) | 16.2 nM | 17.7 nM | 10.7 nM |  |  |  |
| AAAUUAGCAAGUAGAUCCGACAUGAGGAUCACCCAUGUAAUCUAAUAUUACGCUGCACGAAAGUGCGCUCGUCUUAG [Sensor-V1 #14] (Eterna round: R97, puzzle: Sensor, turn-off variant 1) | 416 nM | 470 nM |  |  |  |  |
| AUCUCCUCUGUCAGGAUAUAUAAACUGUUGCAGUGGUAGAAGGGACAUGAGGAUCACCCAUGUAAUAUAAAUAA [Bivege] (puzzle: Brourd's mod of Exclusion 4) |  |  |  |  | 26.6 nM |  |
| AGCUAGUCAGGAUAUUCUAAUAAUUACAUGAGGAUCACCCAUGUGAAGGGACAAGGGUGUGAAGAAGGGACUAGCG [Omei Ex5 A3] (Eterna round: R97, puzzle: Exclusion 5) | 358 nM | 529 nM |  |  |  |  |
| UCUAGCUUUUUGCGUCAAGCAUUGAAGUCUGUGAUCGUAACAUGAGGAUCACCCAUGUAAGUUUUAUGUCGUCUUGU [JR_SV3TOV2_Sub098] (puzzle: Sensor v3, turn-off variant 2) |  |  |  | 47.8 nM | 41.4 nM | 63.3 nM |
| UUUUAGAGAGGAUAUAUAUAGUGAAACAUGAGGAUCACCCAUGUAAUUAUAUGGAUGUAAAUAGAAGGCUCAUUUA [JL-ex5-3.02] (puzzle: Exclusion 5) |  |  |  | 35.7 nM | 31.1 nM | 30.7 nM |
| GUAAAGGGUGUCCUUAAAACAUGAGGAUCACCCAUGUGGACUAAGGAUAUCCAAAAUAAAGAUAAGGAGAAGGUAGUGGAAAGA [Usarqudi] (Eterna round: R96, puzzle: Exclusion NG 3) | 19.3 nM | 14 nM | 19.9 nM |  |  |  |
| GUUAAUUGUCACAUGGGUGACAUGAGGAUCACCCAUGUCACAAGCUUUUUGCUCGUCUUAUAAUUAACCCAUGUGAC [Stov1/12-A2] (Eterna round: R97, puzzle: Sensor, turn-off variant 1) | 14.7 nM | 13.9 nM |  |  |  |  |
| UACAUGAGGAUCACCCAUGUUUUAUCAUGUGUAAUAAUAAUGUAGGAUAUGUAUUAUUUUAUUUAACAGAAGGACAAUAAUAAA [JMF's solution 2] (Eterna round: R96, puzzle: Exclusion NG 3) | 426 nM | 524 nM | 467 nM |  |  |  |
